In patent publication US20230032087A1 (CULLINAN ONCOLOGY, published 2023) one finds Kd and koff data, which are given here for one molecule.

This assay deals with protein A (UniProt P38507 37-327). Description: ForteBio Octet HTX (filing: SPR), HCAb on AHC sensors, 1:1 model. On the technique in general: In BLI a coated tip is dipped into the sample, and binding shifts an interference pattern.

B1: CNG-HSA-101 (VHH)
VHH: KVQLVESGGGLVQPGGSLRLSCAASGFTFSSFGMTWVRQAPGKGLEWVSSISGSGSDTLYADSVRGRFTISRDNSKNTLYLQMNSLRAEDTAVYYCTIGGSLSPSSQGTLVTVSS
As a reminder, the Kd is the concentration at which binding is half-saturated. A higher Kd goes with a looser complex. As usually defined, the koff is the first-order rate constant of dissociation. High values mean a short-lived complex, low ones a long-lived complex. B1 yielded a Kd of no more than 1.84 nM and a koff of no more than 0.0002 s⁻¹.
